Test results: paper PMC12406685, “Thiazole substitution of a labile amide bond—a new option toward antiplasmodial pantothenamide-mimics” (Antimicrobial Agents and Chemotherapy, 2025)

Legend:
Conditions in all cases: other: compound as substrate of HsPanK3; mean ± SEM; 2c and 2e fitted with substrate inhibition equation 1
[1] = substrate: CC(C)(CO)[C@@H](O)C(=O)NCc1csc(-c2ccccc2)n1; experiment: HsPanK kinetic assay (pyruvate kinase/lactic dehydrogenase coupled, NADH at 340 nm); format: biochemical, human
Protocol: (§1) The gene encoding the catalytic core domain of human PanK3 (amino acid residues 12–368) was synthesized and cloned into the pET28a(+) expression vector using the NdeI and BamHI restriction sites to produce an N-terminal His6-tagged protein (Bio Basic Inc.). The plasmid was transformed into E. coli BL21(DE3) cells, which were cultured in Terrific Broth (TB) medium containing 50 µg/mL kanamycin at 37°C. When the culture reached an optical density at 600 nm (OD600) of 0.6, protein expression was induced by adding 1.0 mM isopropyl β-D-thiogalactoside (IPTG), followed by incubation at 18°C for 17–18 h. The cells were then harvested and resuspended in lysis buffer (20 mM Tris-HCl, pH 7.5, 500 mM NaCl, 5 mM imidazole, 5% [vol/vol] glycerol) supplemented with 1 mM PMSF (phenylmethylsulfonyl fluoride) and lysozyme (5 mg/g of the cell pellet). The suspension was then sonicated on ice, and the resulting lysate was centrifuged twice at 54,000 × g for 30 min at 4°C.
(§2) The clarified supernatant was incubated with Ni-NTA resin (Cytiva) pre-equilibrated with lysis buffer containing 5 mM imidazole at 4°C. After binding, the resin was washed with lysis buffer containing 30 mM imidazole, then eluted with lysis buffer containing 250 mM imidazole. The eluted HsPanK3 protein was dialyzed against storage buffer (20 mM Tris-HCl, pH 7.5, 200 mM NaCl, 5% [vol/vol] glycerol) and concentrated. The purified protein was stored at −80°C. Protein purity was assessed using SDS-PAGE and deemed >50% (Fig. S4).
(§3) The enzyme assay was adapted from a previously described method ([103]), which links the production of ADP to the consumption of NADH through the enzymatic activities of pyruvate kinase and lactic dehydrogenase. Reactions were conducted in 96-well microtiter plates, and the decrease in NADH concentration was measured at 340 nm at 30 s intervals after incubation at 30°C. Each reaction mixture (200 µL) contained the desired compound (substrate) at variable concentrations (0–2,000 µM), ATP (1.5 mM), NADH (0.3 mM), phospho(enol)pyruvate (2.0 mM), MgCl2 (10 mM), KCl (20 mM), a commercial pyruvate kinase/lactic dehydrogenase mixture (12 units, Sigma-Aldrich), and pantothenate kinase (0.48 µM) in 50 mM Tris–HCl buffer (pH 7.6). The reaction was initiated with the addition of ATP. The kinetic parameters were determined by fitting the rate data into the Michaelis–Menten equation using GraphPad Prism 8.0 with nonlinear regressions. Data were collected from three independent experiments, each performed in triplicate to verify the trends and optimize the selected concentrations. The kinetic parameters were calculated from the most complete triplicate set of data, and errors represent SEM.

[2] = substrate: CC(C)(CO)[C@@H](O)C(=O)NCc1nc(CCc2ccccc2)cs1; experiment: as above; format: biochemical, human
Protocol: as §1, §2, §3

[3] = substrate: CC(C)(CO)[C@@H](O)C(=O)NCc1cnc(-c2ccccc2)s1; experiment: as above; format: biochemical, human
Protocol: as §1, §2, §3

[4] = substrate: CC(C)(CO)[C@@H](O)C(=O)NCc1csc(Cc2ccccc2)n1; experiment: as above; format: biochemical, human
Protocol: as §1, §2, §3

[5] = substrate: CCCCc1csc(CNC(=O)[C@H](O)C(C)(C)CO)n1; experiment: as above; format: biochemical, human
Protocol: as §1, §2, §3

[6] = substrate: CCCCCc1csc(CNC(=O)[C@H](O)C(C)(C)CO)n1; experiment: as above; format: biochemical, human
Protocol: as §1, §2, §3

[7] = substrate: CC(C)(CO)[C@@H](O)C(=O)NCCC(=O)O; experiment: purified protein, by the assay type

B1: HsPanK3 (Homo sapiens) (protein)
chain: PWFGMDIGGTLVKLSYFEPIDITAEEEQEEVESLKSIRKYLTSNVAYGSTGIRDVHLELKDLTLFGRRGNLHFIRFPTQDLPTFIQMGRDKNFSTLQTVLCATGGGAYKFEKDFRTIGNLHLHKLDELDCLVKGLLYIDSVSFNGQAECYYFANASEPERCQKMPFNLDDPYPLLVVNIGSGVSILAVHSKDNYKRVTGTSLGGGTFLGLCSLLTGCESFEEALEMASKGDSTQADKLVRDIYGGDYERFGLPGWAVASSFGNMIYKEKRESVSKEDLARATLVTITNNIGSVARMCAVNEKINRVVFVGNFLRVNTLSMKLLAYALDYWSKGQLKALFLEHEGYFGAVGALLGLPN
notes: catalytic core domain of human PanK3 (amino acid residues 12–368); made in house; host or cells: E. coli BL21(DE3)
Km [1]: 67 ± 10 µM | kcat [1]: 0.73 ± 0.05 s⁻¹ | kcat/Km [1]: 12000 ± 1000 M⁻¹ s⁻¹ | Km [2]: 42 ± 4 µM | kcat [2]: 0.399 ± 0.005 s⁻¹ | kcat/Km [2]: 10000 ± 1000 M⁻¹ s⁻¹ | Km [3]: 75 ± 11 µM | kcat [3]: 0.73 ± 0.02 s⁻¹ | kcat/Km [3]: 10700 ± 800 M⁻¹ s⁻¹ | Km [4]: 69 ± 6 µM | kcat [4]: 0.63 ± 0.02 s⁻¹ | kcat/Km [4]: 9300 ± 500 M⁻¹ s⁻¹ | Km [5]: 100 ± 7 µM | kcat [5]: 0.64 ± 0.01 s⁻¹ | kcat/Km [5]: 6600 ± 400 M⁻¹ s⁻¹ | Km [6]: 65 ± 7 µM | kcat [6]: 0.61 ± 0.02 s⁻¹ | kcat/Km [6]: 10200 ± 900 M⁻¹ s⁻¹ | Km [7]: 24 ± 4 µM | kcat [7]: 0.64 s⁻¹ | kcat/Km [7]: 30000 M⁻¹ s⁻¹
